Laboratory results from paper PMC3324284.
“And” between values parts separate entries of the source, which are not always exact repeats. Equal entries are not always repeated. Where two headings read alike, the source gives them in different places.

How the values were obtained:
[1] = molecular target: Mga4-His6 (Group A Streptococcus (Streptococcus pyogenes), M4 serotype strain GA40634); experiment: AUC
[2] = molecular target: Mga4-His6 (Group A Streptococcus (Streptococcus pyogenes), M4 serotype strain GA40634); experiment: AUC; remark: listed apart in the source
[3] = molecular target: Mga4-His6 (Group A Streptococcus (Streptococcus pyogenes), M4 serotype strain GA40634); experiment: SEC

## Mga4-His6 (natural protein)
[1]
  Kd: 9.41 µM
[2]
  Kd: 6.13 µM
[3]
  stoichiometry N: 2 and 4 and 6
